From the domain aggregation screens of Martell et al. (2025)

test: soluble fraction after stress (log2 fold change); higher = more stays soluble; pooled small domains, quantitative proteomics; settings: stress: pH 4
Procedure, shortened: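 Aggregation propensity is estimated from the fold change in each domain's soluble amount after acid stress. Pooled small-domain libraries were stressed at pH 4, and higher log2 values mean more stayed soluble.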

| Sequence | soluble fraction (log2) |
| --- | --- |
| HMALQDKYKQLVDTATASGVANLQVREQDGVLYIDGEAPSGSVKDQLWDIYGKIDPNFLSGDVVMNINV | -1.12 |
| HMALQLPFSFAKRHKVLVESAHEPVKVYHTPSTDFAVFAEVRRFLDQTFVLEEIAENRFEELLTSSFQRD | -1.46 |
| HMALSETIYRLRTEHGLSQGDLAAELDVSRQSISKWETGSSVPELDKLVAMSRLFGVSLDELVLGE | -0.584 |
| HMALSLPDDMTIVRKDGSSLEVRLKSRTVTEIHFERISDSETFQFSIDQLDETTRELVEQYPVM | -0.407 |
| HMALTAEVLRSLIKHHGLGQSIQRTAKAVGLSASTVKKYFDRIAAANLTWQEAKSRTQEELIASLQPT | 0.107 |
| HMALTARDLGLTHRQADVLHLVLQGKPVKLIARDLGLAEGTVKSHVSAVLRALNVTTRTQAIVAAGRLGLM | ≥ 0.43 |
| HMAMDITLPLAEVRRQSLEQIERQYLNELMSKHLGRINRAAEAAGITTRQLHKLLTKYSIRKEDFK | 0.0354 |
| HMAMESDELETLVDQLIVDHPDEWSRFVGGDDGDRKKMQGFFTGQIMKATKGQADGRAVAQLLGQKSA | -0.337 |
| HMAMLSKREAEILKLTAKGHSSTDIAQRLTISVNTVEFHRRRIMQKLNAANVAEAVGKAAELGLFF | -0.47 |
| HMAMSAGEVVERIREHVGHPATIKELMRVLAIPNEERYRFRRRIKQLVEAGELIRIRGNRYGLADR | ≥ 0.43 |
| HMAMTITKIEKTSQQKIYYFTDSGRVFKKMSDRSATIAVDDRVELEGGVLGSKFFVTANGSRVKVKEV | 0.0344 |
| HMAMYSREKLKKLREDRGLTQYELAKIAGISVVTLNKIESSDSAKPFVKTLNKIAQALGVGIDELS | ≥ 0.43 |
| HMAMYYVIGGDGQQYGPIDEATVRGWLGEGRVSAASLSFKTGEAQWIPLRDRPELADVLATA | -0.311 |
| HMANKLSEQIYGSILKDIVNGVYAPREFISEAQIAAKYGVSKAPVKEAMHILASEGFLLSYPKRGYMVN | 0.109 |
| HMANKQLQEKLKNYISENGSLSSAAKAIGLSPATLSTYLKDKYEGNVANVETRLTEIFETVEAANNLL | -0.313 |
| HMANKTISMTTLKLVIQQLSKGISRQSISAQYHISRNTIKKYEKRIKAMDMKIEDILKLSDEEISNLLQ | -0.273 |
| HMANLNFDMSQIVASRYQEKAAELGVTAPSLARTDYNTQEQATYEFVAREIIADYYDDRVAPFNDLIPE | -0.967 |
| HMANNPISMIKIRQILRLHIQGRSKLQIAAQTGISRNTLKKYLKEFEASKLTYDEISELSDKDLEDLFIK | 0.225 |
| HMANTSAVIKQPGLVKLFAQHFVRNGFNAMKAAEAAGFVRPSPTFVRNLADSKPVKDAISELLGPYNDA | 0.22 |
| HMANWRVGQTINALVSDRMPSGGLLLTVGRQSFVTTRDIPVQPGARIMLEVQQVEPKLVLRLVSA | -0.236 |
| HMAPADLSPEERVVLDALALEPVHVDALAAKLGRRSEELLTSLTLMEMRGLAVAHAGSRYSRATMT | -0.934 |
| HMAPEEIPLDRVVRLVEQGRVESIVVTGERLEVTLQNGTVYGSTKENGVGFMETLDRYQVPLEQRDFSYEV | -0.72 |
| HMAPELRSDAQMRRLWALAKENGLDEVGFRAFISDATGREVESTKSLTATEAHRLIEELEAP | -0.758 |
| HMAPEPFIVQITASSLNVRKGPGTSYAVAQTVSKGQVFTIVQQQGGWGKLKSGAGWISLKYTAR | -0.0269 |
| HMAPEQWYVLTSGQLPKGPYRLRHIVAMSKGDNWLVARKGAEQWTPLRHLPEFRQAQEANEYIQAIS | -0.122 |
| HMAPFSGVEPREWDSLVERGRQSGEVHAEDVTHVLRHVELTGDVLTDVQSKMAEHGITIDDA | -0.0344 |

| Sequence | soluble fraction (log2) |
| --- | --- |
| HMAPGASEVPDLTSLPAREALLRLTKLGLLPEMEGTGRLVRQQPAAGTRVPKGSKVHLVFEPG | 0.0438 |
| HMAPIEVPYNVFRQQVVEGNVESVATRADTVQGYFETPVTLPARPDAAAAEPVTVERFSTTLPSF | 0.00217 |
| HMAPKRIVLRFGKDISDKPIIYYLVKDYDLVINILKANVNPNKEGTLVLELSGENYDKGIEFLISQGVTVQ | -1.33 |
| HMAPKVHLLKVPVDKIREIIGTGGKVIRQITEETGAKIDISDDGSVKVSSPDQSSIDAATTWITGIIAE | -0.102 |
| HMAPLATLEAGEDGSVKLPNLAGHSIREVAAALGGAKLSLIPIGSGTSWKQTPAPGAVLHSGDTVTVYF | 0.0923 |
| HMAPNDELTRQVISVLSGTPQQAFNYKQISKKLNINDSSERRMVSNILRELAGKGEIVEVYQGKYRSKAPA | 0.116 |
| HMAPPTAEFFAHLPAEALSAVRRSVEEGNARGIDEAILRVETLDGEAGRVLRGLAARYEYGRILELTQR | -0.0842 |
| HMAPQSAAAILRYLSSGAIRGVGPATAQRIVERFGTDSLEIIQNRPKELAAINGISINKALSISEEYAKQY | -0.0357 |
| HMAPREELIAIHEALDKLEREDPQVSQLVKLRYFVGMTMAEAADAMDLKKRAAEALWTYGKAWLHREIKKN | -0.576 |
| HMAPRIVTIQIPVDKIRDVIGPGGKVIRSIIERTGVKIDVEDDGRVNVASADGDSAQRAIAIIQELTAT | -0.0595 |
| HMAPSIPSGADIRAAREAAGINLRDFARIVDGPGIAIWSRYETGTPIRVKSISPEVWQKVRDFISQHG | 0.228 |
| HMAPTADSVPFVIRSVVGGAQPFIVLEDGSKLLVGGVYRKYRLVAVENTRIIFEGPRTAIVT | -0.681 |
| HMAPTPAGNLRSLKSEIVNYTRQSSTAYVYTFKDLSSGELYTARASRYYAAAGDTAYISTAAGAITDM | -0.0513 |
| HMAPTVPEVVRLEEGAARSAIEAAGLSVGSVEFRASSDPAGTVLATRPIAGRKVRPSSAVDLVLSDGRTP | 0.0751 |
| HMAPVEEWAKASVMEDPTLVTETMARIFAQQGQIGKARKAYRHLALTYPAKSTYFAAQLKKLNQR | 0.355 |
| HMAPVLTATVNTTSGKLNMRAAASATSAKLTSIPRGATVTVLEKGTTWSRISYGGYTGYVMTQYLKFD | -0.575 |
| HMAPVVELEDVTIVRGKATLLDRVNWVIDETDRWVIVGPNGAGKTTLLQVVSANLHPTSGKAMILDEVL | -0.366 |
| HMAQILEPSVALKKLLELKQAGFEDETLVGWIRKVEFTRPLTPDDLLEWKGAGISQAVIRAAM | 0.00449 |
| HMAQISDEGLLRGLIVEMFEANPAVVEELLGGRDRKKGFVIGQIMKKTKGMANPALLDQLFYEELEKL | -1.31 |
| HMAQTEIPYSEFLREVGNGQIKSVIIEGSEITGFYKTSGTSFNVVAPDDPKLVERLMDQGVEVRAQPT | 0.193 |
| HMAQVVMPNVVGKTEKDATATLEGKNLKVNVEYNLDATSDDGIVKEQSIKSGENIDEGTEITLKVNKV | -1.69 |
| HMAQWGFNGSEAGDLSFQQGDVIEVVEKVKDDWWRGRVLGSTEIGLFPS | -1.64 |
| HMARDDVIRLVQLSLDHLPAKYADALEWKYVEGLSTKEIAARLELGSEAAESLLARARRAFKNDFQEIFES | -0.47 |
| HMAREFPGTIIKRGSRGPDVRWIQQHIGVKLVDGVFGRGTERAVKQFQSRRRLKADGIVGRQTWAAIHN | ≥ 0.43 |
| HMARGATELPYSQLLDRVEAGEITTATTQGNTLLSTARDGKRYITYLPLDTMDEVVPRLDAANVEVKTER | -0.123 |
| HMARGLRPVPSVFGLDVRQATRTLYAAGFQVSIARGSDVRTRPAAGTLLRVGSTVQLEMPRMESA | -0.000244 |

| Sequence | soluble fraction (log2) |
| --- | --- |
| HMARGTRTRAKLLAAAEVVFARYGYTEASIERITEEAGVGQGTFYLYFASKLEIFEELVDDLNR | -1.07 |
| HMARLEELSNGSIVEGLLSGEAVTVVSTKWYGSSSMEVFYKTNRGSTGSQILYREDEPSLTVLEKS | -0.425 |
| HMARPLHVDALIHLGTEIGSRVGGAHAGPHLLVAGHSPMSELVYARLLGIPTLGWMRGQLTFVNLSK | 0.108 |
| HMARSKSRQSSVLESVPGLGPSRRRNLLRHFGGLQGVVKAGVEDLMAVRGISRTLAETVYDHLHPGS | 0.22 |
| HMARTIINLPLRNSVDESYNTTVNILQANGFKEVSYNGETVWKKGTGLLTAMQYIKIEFTDTTLVVSGWVQ | -0.11 |
| HMARTLSVTVSENYANMRLDSFLFESGLYPSRSKAVKQIESGKVFVNGNEPTKKTIVVANDFIVYEEYAEE | -1.15 |
| HMARTTIATPWDKINDLLQGGLGNGDFGLIFGNPGGGKSWSLVALGGFAVKLGYNVIHYTLE | -1.35 |
| HMASAEDDLTRRARKLLTTSSMLKTLQPDTGERLQWLPQVVRLLAEGVEAPRIVVLIRRAMESG | -0.00608 |
| HMASALDFGRYVRSQYSLQEFPLILIAPLNDPHPKEVVRELFNLYLTKPITRSRLFDSLMTVLG | -0.499 |
| HMASDQGAGALREVSAFFEKHGRVPDPDAVDHDEMRLGSIWASIKSAPTDQMRLEDRFGLLD | -0.613 |
| HMASDYYTTTANLNLRSGAGTTYGSLIIIEKGDTVKLLENVNDHWVKIQYDDKIGYVAMSYLLPIE | -0.113 |
| HMASEKSEQLYQQMKLDIAGMPPDTRLPSIRALMRSYSVSQLLIDRTLGRLREEGALRKRFDGLYTYL | -0.0945 |
| HMASELQQVQALLESQRYNEALILIETTIGKGASESTELLFARADVFASSGRHDEAEQAYREL | -0.45 |
| HMASELVSADEKYSGLVSYLLGRVVVVDQIDHAIALAKKYRYSLRIVTLDGELLSPGGSMTGGAFKNS | 0.2 |
| HMASEVEVPNVYGMPSSLAERELSAVGLLADYRSRTGTGQQPGTVVHVKPDAGTVVSRGSTVVLFIA | 0.138 |
| HMASFASRAEEVMTKLLANGQPRIKEVADAMHLSSRTLQRRLEREGVSFAELLDRLRKRLAHDMLAHS | ≥ 0.43 |
| HMASFGDLSGLKRTYPPQGLPDASRIADFLIARNEGDLSVEQVKALERFLFEHPDHERTARLVAATRVPA | -0.115 |
| HMASFTDAQALEVKDLYPDWSKIPEGTHLEAGQRVRYNGNLYKVRTGQAHDKQSTWTPTDAASLFEAID | 0.0558 |
| HMASIEPLKTSIRIIWYINGEKDSETLLNTPPTAANKANAQKIADMVEQQIQMGIFNRDAVFPSSPKRQ | -0.559 |
| HMASIGVGTIVRVANAVNYNGVKVKAWFNDEGYEVTELSGDRAVLKHNGDLFDAFHVSDLEA | -0.771 |
| HMASINRIENKNGKVVYRIIVSLGYDKQGKKLKKTITYNVNQTATKKQQENEALKYALDIEDKIKNGHD | -0.138 |
| HMASITLDQAKEIALTHAGQTADAVWFEKAEQDYDDGILVYELEFAAKGTEYEYEIDAQTGAIREYKWDD | 0.0206 |
| HMASLSEREHDVAVLILQGKTYAEIGQAIFISPRTVEHHVASIRRRLEAKSRSDLIAKLRLTIGGTED | -1.15 |
| HMASPTKQLVLEALRASGQPMSSMELSAQIGVSRATAQRYLSTLASAGEVKIQLRYGTTGRPEQEFLAIE | 0.22 |
